# Data published in the supplement of paper PMC10567573.
# B1: KCTD10 (parent)
# chain: SSKEEQKLIATSNKPAVKLLYNRS
# B2: KCNG1 (parent)
# chain: AVNLSVSTLPSLREEEEQVRAHAP
# Variants of: B1
# Experiment: protein stability index of a GFP-peptide fusion (GPS, HEK-293T) (PSI 1-6); higher = more stable
# Details: c terminus: a fixed tail appended
# 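Further: lentivirally expressed fusions sorted by FACS into six bins by GFP to DsRed ratio, PSI derived from sequencing read proportions per bin multiplied by bin number.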
row,Variant,protein stability index
1,SSKEEQKLIITSNKPAVKLLYNRS,2.74
2,SSKEEQKLIFTSNKPAVKLLYNRS,3.44
3,SSKEEQKLIKTSNKPAVKLLYNRS,4.15
4,SSKEEQKLIPTSNKPAVKLLYNRS,3.78
5,HSKEEQKLIATSNKPAVKLLYNRS,4.21
6,ASKEEQKLIATSNKPAVKLLYNRS,3.87
7,ISKEEQKLIATSNKPAVKLLYNRS,3.56
8,WSKEEQKLIATSNKPAVKLLYNRS,3.08
9,LSKEEQKLIATSNKPAVKLLYNRS,3.69
10,SSKEEQKLIATSNKPEVKLLYNRS,4.26
11,SSKEEQKLIATSNKPLVKLLYNRS,3.54
12,SSKEEQKLIATSNKPDVKLLYNRS,4.18
13,SSKEEQKLIATSNKPTVKLLYNRS,4.1
14,SSKEEQKLIATSNKPAVKLLYNRF,3.52
15,SSKEEQKLIATSNKPAVKLLYNRM,3.52
16,SSKEEQKLIATSNKPAVKLLYNRH,3.56
17,SSKEEQKLIATSNKMAVKLLYNRS,3.47
18,SSKEEQKLIATSNKIAVKLLYNRS,2.81
19,SSKEEQKLIATSNKWAVKLLYNRS,2.19
20,SSKEEQKLIATSNKRAVKLLYNRS,3.51
21,SSKEEQKLIATSNKPAVKGLYNRS,4.13
22,SSKEEQKLIATSNKPAVKFLYNRS,4.12
23,SSKEEQKLIATSNKPAVKPLYNRS,4.94
24,SSKEEQKLIATSNKPAVKILYNRS,4.59

row,Variant,protein stability index
1,SSKEEQKLIATSNKPAVKCLYNRS,4.39
2,SSKEEQKLIATSNKPAVKMLYNRS,4.59
3,SSKEEQKLIATSNFPAVKLLYNRS,3.39
4,SSKEEQKLIATSNIPAVKLLYNRS,3.66
5,SSKEEQKLIATSNKPAVKLLYNGS,3.75
6,SSKEEQKLIATSNKPAVKLLYNSS,4.13
7,SSKEEQKLIATSNKPAVKLLYNES,4.63
8,SSKEEQKLIATSNKPAVKLLANRS,4.33
9,SSKEEQKLIATSNKPAVKLLFNRS,3.75
10,SSKEEQKLIATSNKPAVKLLGNRS,4.97
11,SSKEEQKDIATSNKPAVKLLYNRS,4.88
12,SSKEEQKSIATSNKPAVKLLYNRS,4.62
13,SSKEEQKCIATSNKPAVKLLYNRS,4.42
14,SVKEEQKLIATSNKPAVKLLYNRS,3.5
15,SFKEEQKLIATSNKPAVKLLYNRS,3.57
16,SNKEEQKLIATSNKPAVKLLYNRS,4.16
17,SMKEEQKLIATSNKPAVKLLYNRS,4.13
18,SLKEEQKLIATSNKPAVKLLYNRS,3.79
19,SSPEEQKLIATSNKPAVKLLYNRS,4.06
20,SSYEEQKLIATSNKPAVKLLYNRS,3.26
21,SSFEEQKLIATSNKPAVKLLYNRS,3.83
22,SSAEEQKLIATSNKPAVKLLYNRS,4.67
23,SSKFEQKLIATSNKPAVKLLYNRS,3.6
24,SSKLEQKLIATSNKPAVKLLYNRS,3.52

row,Variant,protein stability index
1,SSKHEQKLIATSNKPAVKLLYNRS,3.09
2,SSKEEQKLIATSNKPATKLLYNRS,4.28
3,SSKEEQKLIATSNKPAKKLLYNRS,4.61
4,SSKEEQKLIATSNKPARKLLYNRS,3.94
5,SSKEEQKLIATSNKPAFKLLYNRS,2.74
6,SSKEEQKLIATSNKPALKLLYNRS,4.02
7,SSKEEQKLIATSNKPAVKLQYNRS,4.28
8,SSKEEQKLIATSNKPAVKLSYNRS,4.35
9,SSKEEQKLIATSNKPAVKLFYNRS,3.95
10,SSKEEQKLIATSNKPAVKLNYNRS,4.37
11,SSKEEQELIATSNKPAVKLLYNRS,4.4
12,SSKEEQDLIATSNKPAVKLLYNRS,4.49
13,SSKEEQGLIATSNKPAVKLLYNRS,4.45
14,SSKEEQHLIATSNKPAVKLLYNRS,3.85
15,SSKEEQLLIATSNKPAVKLLYNRS,3.21
16,SSKEEQKLIAMSNKPAVKLLYNRS,3.6
17,SSKEEQKLIACSNKPAVKLLYNRS,3.61
18,SSKEEQKLIATSKKPAVKLLYNRS,3.96
19,SSKEEQKLIATSIKPAVKLLYNRS,3.21
20,SSKEEQKLIATSHKPAVKLLYNRS,3.9
21,SSKEEQKLIATSNKPAVRLLYNRS,4.33
22,SSKEEQKLIATSNKPAVTLLYNRS,3.74
23,SSKEEQKLIATSNKPAVDLLYNRS,4.25
24,SSKEEEKLIATSNKPAVKLLYNRS,4.52

row,Variant,protein stability index
1,SSKEENKLIATSNKPAVKLLYNRS,3.96
2,SSKEEQKLRATSNKPAVKLLYNRS,4.33
3,SSKEEQKLDATSNKPAVKLLYNRS,4.74
4,SSKEEQKLWATSNKPAVKLLYNRS,3.93
5,SSKEEQKLLATSNKPAVKLLYNRS,3.98
6,SSKEEQKLSATSNKPAVKLLYNRS,4.34
7,SSKEEQKLIATINKPAVKLLYNRS,3.92
8,SSKEEQKLIATDNKPAVKLLYNRS,4.52
9,SSKEEQKLIATHNKPAVKLLYNRS,3.46
10,SSKEEQKLIATENKPAVKLLYNRS,4.42
11,SSKEEQKLIATSNKPAVKLLYYRS,2.96
12,SSKEEQKLIATSNKPAVKLLYDRS,4.55
13,SSKEEQKLIATSNKPAVKLLYKRS,4.16
14,SSKEEQKLIATSNKPAVKLLYWRS,2.73
15,SSKEEQKLIATSNKPAVKLLYFRS,3.17
16,SSKEEQKLIATSNKPAVKLLYGRS,4
17,SSKEEQKLIATSNKPAVKLLYERS,4.22
18,SSKEEQKLIATSNKPAVKLLYHRS,4.01
19,SSKEEQKLIATSNKPAVKLLYARS,3.84
20,SSKEPQKLIATSNKPAVKLLYNRS,3.56
21,SSKEFQKLIATSNKPAVKLLYNRS,2.26
22,SSKECQKLIATSNKPAVKLLYNRS,3.34
23,SSKEIQKLIATSNKPAVKLLYNRS,2.97

# Variants of: B2
# Experiment: as above
# Details: c terminus: a fixed tail appended
row,Variant,protein stability index
1,AVNLSVSTLPSLREEEEQVRQHAP,5.25
2,AVNLSVSTLPSLREEEEQVRFHAP,3.75
3,AVNLSVSTLPSLREEEEQVRSHAP,4.96
4,AVNLSVSTLPSLREEEEQVRYHAP,3.93
5,AVNLSVSTLPSLREEEEQVRRHAP,4.99
6,AVNLSVSTLPSLREEEEQVRTHAP,4.54
7,AVNLSVSTLPSLREEEEQVRLHAP,4.71
8,AVNLSVSTLPSLREEEEQVREHAP,4.52
9,AVNLSVSTLPSLREEEEQVRHHAP,4.68
10,AVNLSVSTLPSLREEEEQVRCHAP,4.74
11,AVNLSVSTLPSLREEEEQVRNHAP,4.28
12,AVNLSVSTLPSLREEEEQVRMHAP,4.27
13,AVNLSVSTLPSLREEEEQVRPHAP,4.97
14,AVNLSVSTLPSLREEEEQVRIHAP,4.11
15,AVNLSVSTLPSLREEEEQVRDHAP,5.32
16,AVNLSVSTLPSLREEEEQVRKHAP,4.64
17,AVNLSVSTLPSLREEEEQVRWHAP,3.35
18,AVNLSVSTLPSLREEEEQVRGHAP,5.13
19,AVNLSVSTLPSLREEEEQVRVHAP,4.36
20,AVNLSVSTLPSLREEEEQVWAHAP,4.55
21,AVNLSVSTLPSLREEEEQVSAHAP,4.75
22,AVNLSVSTLPSLREEEEQVMAHAP,5.2
23,AVNLSVSTLPSLREEEEQVFAHAP,4.48
24,AVNLSVSTLPSLREEEEQVHAHAP,5.06

row,Variant,protein stability index
1,AVNLSVSTLPSLREEEEQVLAHAP,5.37
2,AVNLSVSTLPSLREEEEQVTAHAP,5.27
3,AVNLSVSTLPSLREEEEQVGAHAP,5.48
4,AVNLSVSTLPSLREEEEQVEAHAP,5.63
5,AVNLSVSTLPSLREEEEQVNAHAP,5.3
6,AVNLSVSTLPSLREEEEQVYAHAP,4.75
7,AVNLSVSTLPSLREEEEQVVAHAP,4.94
8,AVNLSVSTLPSLREEEEQVDAHAP,5.96
9,AVNLSVSTLPSLREEEEQVQAHAP,5.12
10,AVNLSVSTLPSLREEEEQVPAHAP,5.17
11,AVNLSVSTLPSLREEEEQVKAHAP,5.17
12,AVNLSVSTLPSLREEEEQVIAHAP,5.14
13,AVNLSVSTLPSLREEEEQVRAHAF,4.42
14,AVNLSVSTLPSLREEEEQVRAHAI,4.58
15,AVNLSVSTLPSLREEEEQVRAHAG,5.37
16,AVNLSVSTLPSLREEEEQVRAHAN,5.34
17,AVNLSVSTLPSLREEEEQVRAHAR,5.08
18,AVNLSVSTLPSLREEEEQVRAHAT,5.36
19,AVNLSVSTLPSLREEEEQVRAHAM,4.55
20,AVNLSVSTLPSLREEEEQVRAHAK,4.92
21,AVNLSVSTLPSLREEEEQVRAHAS,4.84
22,AVNLSVSTLPSLREEEEQVRAHAL,4.94
23,AVNLSVSTLPSLREEEEQVRAHAV,5.11
24,AVNLSVSTLPSLREEEEQVRAHAQ,5.23

row,Variant,protein stability index
1,AVNLSVSTLPSLREEEEQVRAHAC,5.04
2,AVNLSVSTLPSLREEEEQVRAHAD,5.57
3,AVNLSVSTLPSLREEEEQVRAHAW,4
4,AVNLSVSTLPSLREEEEQVRAHAY,4.41
5,AVNLSVSTLPSLREEEEQVRAHAA,5.57
6,AVNLSVSTLPSLREEEEQVRAHAE,5.61
7,AVNLSVSTLPSLREEEEQVRAHAH,5.41
8,AVNLSVSTLPSLREEEEQVRALAP,4.83
9,AVNLSVSTLPSLREEEEQVRACAP,4.92
10,AVNLSVSTLPSLREEEEQVRAFAP,4.49
11,AVNLSVSTLPSLREEEEQVRAKAP,5.49
12,AVNLSVSTLPSLREEEEQVRAYAP,4.87
13,AVNLSVSTLPSLREEEEQVRARAP,5.22
14,AVNLSVSTLPSLREEEEQVRAVAP,4.76
15,AVNLSVSTLPSLREEEEQVRADAP,5.01
16,AVNLSVSTLPSLREEEEQVRASAP,5.49
17,AVNLSVSTLPSLREEEEQVRAPAP,4.62
18,AVNLSVSTLPSLREEEEQVRAGAP,5.29
19,AVNLSVSTLPSLREEEEQVRATAP,4.91
20,AVNLSVSTLPSLREEEEQVRAMAP,5.28
21,AVNLSVSTLPSLREEEEQVRAEAP,5.62
22,AVNLSVSTLPSLREEEEQVRANAP,5.26
23,AVNLSVSTLPSLREEEEQVRAAAP,5.11
24,AVNLSVSTLPSLREEEEQVRAQAP,4.57

row,Variant,protein stability index
1,AVNLSVSTLPSLREEEEQVRAIAP,4.45
2,AVNLSVSTLPSLREEEEQVRAWAP,3.02
3,AVNLSVSTLPSLREEEEQVRAHYP,4.3
4,AVNLSVSTLPSLREEEEQVRAHQP,5.27
5,AVNLSVSTLPSLREEEEQVRAHMP,4.83
6,AVNLSVSTLPSLREEEEQVRAHRP,5.04
7,AVNLSVSTLPSLREEEEQVRAHEP,4.82
8,AVNLSVSTLPSLREEEEQVRAHCP,4.86
9,AVNLSVSTLPSLREEEEQVRAHTP,4.87
10,AVNLSVSTLPSLREEEEQVRAHLP,5.02
11,AVNLSVSTLPSLREEEEQVRAHKP,5.1
12,AVNLSVSTLPSLREEEEQVRAHSP,5.2
13,AVNLSVSTLPSLREEEEQVRAHNP,5.26
14,AVNLSVSTLPSLREEEEQVRAHIP,4.82
15,AVNLSVSTLPSLREEEEQVRAHHP,4.87
16,AVNLSVSTLPSLREEEEQVRAHWP,4.32
17,AVNLSVSTLPSLREEEEQVRAHDP,5.3
18,AVNLSVSTLPSLREEEEQVRAHVP,5.07
19,AVNLSVSTLPSLREEEEQVRAHGP,5.71
20,AVNLSVSTLPSLREEEEQVRAHPP,5.29
21,AVNLSVSTLPSLREEEEQVRAHFP,4.1
